The target of assay [1] is T1, human chemokine CXCL1 (human, UniProt P09341 35-107).
T1 construct: also called growth-regulated oncogene alpha; GRO-alpha
T1 sequence (looked up): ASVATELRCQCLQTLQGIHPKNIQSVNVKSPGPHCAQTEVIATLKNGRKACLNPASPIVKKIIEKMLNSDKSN
Description: SPR (Biacore 3000), antibody captured on a CM5 chip, cytokine as analyte, 25 C; head 'x M10Exp8' applied as printed, but this does not agree with 1/Kd of the same pair (about 8.47e7). The text has this: (§1) With the BIAcore® 3000, 4 canals (Flow cell) are designed on the CM5 sensor surface. The polyclonal rabbit anti mouse IgG antibodies are covalently coupled on the 2nd, 3rd and 4th flow cells (FC), leaving the first FC (FC1) blank for reference subtraction. The first FC (FC1) is only activated (EDC/NHS) and deactivated (ethanolamine hydrochloride NaOH), without injection of capture antibody.
(§2) First the ligand (interest antibody) is captured by the immobilised antibodies. Diluted antibodies Mc12A10-13 (5 μg/mL), Mc35B11-8 (8 μg/mL), McCXCL1 (2 μg/mL), McCXCL7 (1 μg/mL), McCXCL8 (3 μg/mL), McPan CXCL1-2-3 (5 μg/mL) are captured by the polyclonal rabbit anti mouse IgG antibodies immobilized on the CM5 sensor chip with a 3 minutes injection at a flow rate of 5 μL/min. The complex “capture antibody—ligand” is stabilized during 10 minutes before the injection of the analyte (cytokines). This capture is a non-covalent interaction.
(§3) Then a range of cytokine concentration is injected (analyte) over the captured antibody (ligand). Cytokines CXCL1, CXCL3, NAP2, IL8 are injected over the captured ligand for a range of concentration from 0 to 10 μg/mL, at a flow rate of […]. The complex “ligand/analyte” is formed. The association and the dissociation phases are monitored over about 3 minutes and 2.5 minutes respectively. The signal induced is measured in RU (Resonance Unit).
In general terms: In SPR one partner is held on a chip, and binding of the other changes the refractive index at the surface.

Assay [2] has as its target T2, CXCL3 (human (presumed; the text does not …, UniProt P19876).
T2 construct: also called cytokine CXCL3; Gro-gamma
T2 sequence (chemokine, looked up): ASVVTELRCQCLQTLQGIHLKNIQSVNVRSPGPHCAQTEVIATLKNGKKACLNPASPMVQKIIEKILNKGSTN
Description: SPR (Biacore 3000), antibody captured on a CM5 chip, cytokine injected as analyte, 25 C.
Source text: as §1, §2, §3

The target in assay [3] is T3, human chemokine CXCL7 (human, UniProt P02775 59-128).
T3 construct: also called NAP2; NAP-2
T3 sequence (looked up): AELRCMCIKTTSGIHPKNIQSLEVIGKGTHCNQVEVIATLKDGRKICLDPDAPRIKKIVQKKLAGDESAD
The assay is described as above.
Source text: as §1, §2, §3

The target in assay [4] is T1, human chemokine CXCL1. The description is as above.
Source text: as §1, §2, §3

Assay [5] has as its target T4, human chemokine CXCL8 (human, UniProt P10145 28-99, limits assumed).
T4 construct: also called IL8; IL-8
T4 sequence (looked up): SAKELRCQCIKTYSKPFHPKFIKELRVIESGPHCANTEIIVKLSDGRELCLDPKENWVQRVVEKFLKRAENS
The description is as above.
Source text: as §1, §2, §3

The target of assay [6] is T5, peptide specific for human CXCL7 of sequence SDLYAELRCMCIKTTSGIHPKNIQS (SEQ ID NO: 20) coupled to keyhole … (human, coupled to keyhole limpet hemocyanine).
T5 construct: Immunisation peptide, used in the ELISA screen as a KLH conjugate; also called pCXCL7
T5 peptide: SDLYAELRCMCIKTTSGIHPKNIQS
Description: ELISA screen on KLH-coupled peptide.

In assay [7] the target is T3, human chemokine CXCL7. As to the kind of experiment: SPR (Biacore 3000), antibody captured on a CM5 chip, cytokine as analyte, 25 C; head 'x M10Exp8' applied, agrees with 1/Kd.
Source text: as §1, §2, §3

Assay [8] deals with T4, human chemokine CXCL8. Description: SPR (Biacore 3000), antibody captured on a CM5 chip, cytokine as analyte, 25 C; head 'x M10Exp8' applied as printed, but this does not agree with 1/Kd of the same pair (about 5.03e7).
Source text: as §1, §2, §3

For assay [9], the target named is T2, CXCL3. Description: SPR (Biacore 3000), antibody captured on a CM5 chip, cytokine as analyte, 25 C; head 'x M10Exp8' applied as printed, but this does not agree with 1/Kd of the same pair (about 1.55e7).
Source text: as §1, §2, §3

The target in assay [10] is T4, human chemokine CXCL8. Description: SPR (Biacore 3000), antibody captured on a CM5 chip, cytokine as analyte, 25 C; head 'x M10Exp8' applied as printed, but this does not agree with 1/Kd of the same pair (about 2.26e7).
Source text: as §1, §2, §3

Assay [11] addresses T1, human chemokine CXCL1. Description: SPR (Biacore 3000), antibody captured on a CM5 chip, cytokine as analyte, 25 C; head 'x M10Exp8' applied as printed, but this does not agree with 1/Kd of the same pair (about 6.4e7).
Source text: as §1, §2, §3

B1: monoclonal rat IgG antibody produced by the hybridoma 35B11-8 (CNCM I-4618) (antibody, V domains shown)
VH: EVQLVESGGGLVQPGRSLKLSCVASGFTFNNYWMTWIRQAPGKGLEWVASISKTGSNPYYPDSVKGRFTISRDNAKNTLYLQMNSLRSEDTATYYCARDGTTPLDYWGQGVMVTVSS
VL: DIQMTQSPPSLSASLGDKVTITCQASQNINKYIAWYQQKPGKAPGLLIHYTSTLVSGIPSRFSGSGSGRVYSFSISNVESEDIASYYCLQYDNSPFPFGAGTKLELK
notes: also called Mc35B11-8
As for B1, the values for the Ka with human chemokine CXCL1 [1], in the assay with human chemokine CXCL7 [7] and in the assay with human chemokine CXCL8 [8] were 8.5e+07 M⁻¹, 2.01e+08 M⁻¹ and 5.03e+07 M⁻¹, respectively. Moreover, the Kd with CXCL3 [2] was 247 nM; with human chemokine CXCL7 [3] it was 4.99 nM; in the assay with human chemokine CXCL1 [4] it was 11.8 nM; in the assay with human chemokine CXCL8 [5] it was 19.9 nM. Also, the binding result in [6] is “binds”.

B2: monoclonal rat IgG antibody produced by the hybridoma 12A10-13 (CNCM I-4617) (antibody, V domains shown)
VH: QVQLQQSGAELAKPGSSVKISCKASGYTFTSYYISWIKQTTGQGLEYIGYINTGSGGTNYNEKFKGKATLTVDKSSSTAFMQLSSLTPDDSAVYYCASPSGGFDYWGQGVMVTVSS
VL: EIVLTQSPTTMAASPGEKVTITCRASSSVSYMHWYQQKPGASPKPWIYDTSKLASGVPNRFSGSGSGTSYSLTISSMETEDTATYYCQQWSSNSLTFGSGTKLEIK
notes: also called Mc12A10-13
With B2, the Kd in the assay with CXCL3 [2] turned out to be 64.5 nM; with human chemokine CXCL7 [3] it was 3.3 nM; in the assay with human chemokine CXCL1 [4], 15.6 nM; in the assay with human chemokine CXCL8 [5], 44.3 nM. Further, the Ka in the assay with CXCL3 [9] came out at 1.55e+07 M⁻¹; with human chemokine CXCL8 [10] it was 2.26e+07 M⁻¹; in the assay with human chemokine CXCL1 [11], 6.4e+07 M⁻¹; with human chemokine CXCL7 [7], 3.03e+08 M⁻¹. The binding result in assay [6] is reported as “binds”.

As usually defined, the Kd is the constant that tells how readily two partners part at equilibrium. A higher Kd goes with weaker binding.

The record behind these values is US20160108117A1 (UNIVERSITE DE NICE SOPHIA ANTIPOLIS, published 2016).
